Results taken from the supplement of paper PMC10065799, “High-throughput profiling of sequence recognition by tyrosine kinases and SH2 domains using bacterial peptide display” (eLife, 2023).

These sequences were tested on c-Src (assay: phosphorylation enrichment, bacterial display (enrichment ratio); higher = better substrate or ligand; peptides without Tyr show the background).
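Note: 11-residue human phosphosite peptides and single-mutation variants displayed on the E. coli surface, counted by deep sequencing, each peptide's frequency after selection divided by its frequency in the unselected input library; frequency after pTyr selection over input frequency; kinase dosed for 20-30% of maximal phosphorylation in three min.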

Row | Sequence | phosphorylation enrichment
1 | TRSYKCLLLSM [NF1_Y491_Y491C] | 0.401
2 | EARRVYGDIIY [ALDH5A1_Y175_H180Y] | 1.14
3 | GGQVFHNSEFG [FLT4_Y1333_Y1333H_YF] | 0.377
4 | EFNINYNNEPP [THG1L_Y228_L232P] | 0.529
5 | RVFIKYLPEWT [PSEN1_Y240_L235R] | 0.855
6 | IGRGSYAKVLL [PRKCZ_Y263] | 0.34
7 | DIRAQYDELAR [KRT18_Y256] | 0.474
8 | FSMGCYEFSLG [HMGCL_Y198_I200F_YF] | 1.25
9 | IDDLEYLHSQG [STK11_Y166_G163D] | 0.578
10 | RGEEPYTKKAL [TTC21B_Y160_K157E] | 0.383
11 | PIPAAYNRYDQ [CDC73_Y290] | 0.342
12 | IFETDYFQKGG [INSR_Y1189_R1191Q_YF] | 0.492
13 | RFLFFYSFLLK [PTEN_Y178_V175L_YF] | 1.41
14 | ETAENYLGHTA [HSPA9_Y181] | 0.414
15 | MYVKSYTIHYS [F5_Y2153] | 0.425
16 | LEGAKYVSHGA [ASS1_Y113_R108L] | 0.605
17 | AAVPAYDKIQV [STXBP2_Y401_R405Q] | 0.593

Row | Sequence | phosphorylation enrichment
18 | RVFRDYVLKSA [HTATIP2_Y111_D108Y_YF] | 0.45
19 | CTTIHSNFMCN [TP53_Y234_Y234S_YF] | 0.454
20 | PICEGYALPHA [ACTC1_Y171_Y168C] | 0.406
21 | KTKIGYSPLHQ [ANK1_Y735_L733I] | 0.425
22 | SSQTIYQRVEG [TFR2_Y23_V22I] | 1.6
23 | FSQQVYRVNLS [FAT4_Y480] | 0.623
24 | GFGGGYGGVLT [KRT19_Y65_A60G_YF] | 0.45
25 | RFLERYIYNRE [HLA-DPB1_Y57] | 0.849
26 | IVEFAYNDKAI [PUM3_Y259_YF] | 0.474
27 | IGSHAYGDQFR [IDH1_Y135_R132S_YF] | 0.353
28 | DPEGAYTTRGG [EPHA3_Y779_A777G] | 0.536
29 | ASTDFNKRGDF [PDHA1_Y243_Y243N_YF] | 0.44
30 | EGVPLYESATT [DCC_Y809] | 1.14
31 | DLRTGYSVPFG [TGM1_Y370_Y365D_YF] | 0.341
32 | ARLDEYIAIAK [RCOR3_Y46_K42R] | 0.458
33 | PANTVYSTVEI [SLAMF7_Y304] | 7.87

The sequences below were run against MERTK (UniProt Q12866) in the same assay as above.
Chain of MERTK (Q12866 whole entry, looked up): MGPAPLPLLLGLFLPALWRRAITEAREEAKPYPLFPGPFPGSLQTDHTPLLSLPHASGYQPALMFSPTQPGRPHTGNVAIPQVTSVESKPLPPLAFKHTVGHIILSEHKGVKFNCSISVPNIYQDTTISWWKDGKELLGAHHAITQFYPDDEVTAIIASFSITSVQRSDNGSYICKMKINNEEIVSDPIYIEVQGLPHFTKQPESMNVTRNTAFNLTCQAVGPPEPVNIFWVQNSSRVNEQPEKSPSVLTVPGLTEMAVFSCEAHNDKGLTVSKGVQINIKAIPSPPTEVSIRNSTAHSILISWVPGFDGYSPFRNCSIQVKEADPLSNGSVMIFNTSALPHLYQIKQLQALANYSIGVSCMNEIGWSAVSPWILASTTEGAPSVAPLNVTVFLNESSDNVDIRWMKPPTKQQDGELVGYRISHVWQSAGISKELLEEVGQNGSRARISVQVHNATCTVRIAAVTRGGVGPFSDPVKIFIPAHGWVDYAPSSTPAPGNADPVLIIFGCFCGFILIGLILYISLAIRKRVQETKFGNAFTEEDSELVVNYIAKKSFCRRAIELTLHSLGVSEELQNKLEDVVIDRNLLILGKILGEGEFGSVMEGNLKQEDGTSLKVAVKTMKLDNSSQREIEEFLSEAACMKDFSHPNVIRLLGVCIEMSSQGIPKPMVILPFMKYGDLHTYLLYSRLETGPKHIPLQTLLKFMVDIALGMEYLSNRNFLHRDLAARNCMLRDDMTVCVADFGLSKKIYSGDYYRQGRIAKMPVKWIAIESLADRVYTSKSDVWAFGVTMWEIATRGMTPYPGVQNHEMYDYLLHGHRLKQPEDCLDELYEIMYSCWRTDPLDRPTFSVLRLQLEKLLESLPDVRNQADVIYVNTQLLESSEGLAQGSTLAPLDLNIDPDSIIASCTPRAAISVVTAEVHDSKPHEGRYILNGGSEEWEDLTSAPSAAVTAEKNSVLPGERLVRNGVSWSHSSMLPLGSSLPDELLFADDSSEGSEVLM

Row | Sequence | phosphorylation enrichment
34 | TRSYKCLLLSM [NF1_Y491_Y491C] | 0.434
35 | EARRVYGDIIY [ALDH5A1_Y175_H180Y] | 0.42
36 | GGQVFHNSEFG [FLT4_Y1333_Y1333H_YF] | 0.395
37 | EFNINYNNEPP [THG1L_Y228_L232P] | 0.46
38 | RVFIKYLPEWT [PSEN1_Y240_L235R] | 0.678
39 | IGRGSYAKVLL [PRKCZ_Y263] | 0.452
40 | DIRAQYDELAR [KRT18_Y256] | 0.47
41 | FSMGCYEFSLG [HMGCL_Y198_I200F_YF] | 0.964
42 | IDDLEYLHSQG [STK11_Y166_G163D] | 0.572
43 | RGEEPYTKKAL [TTC21B_Y160_K157E] | 0.491
44 | PIPAAYNRYDQ [CDC73_Y290] | 0.263
45 | IFETDYFQKGG [INSR_Y1189_R1191Q_YF] | 0.386
46 | RFLFFYSFLLK [PTEN_Y178_V175L_YF] | 0.782
47 | ETAENYLGHTA [HSPA9_Y181] | 0.503
48 | MYVKSYTIHYS [F5_Y2153] | 0.446
49 | LEGAKYVSHGA [ASS1_Y113_R108L] | 0.551
50 | AAVPAYDKIQV [STXBP2_Y401_R405Q] | 0.688

Row | Sequence | phosphorylation enrichment
51 | RVFRDYVLKSA [HTATIP2_Y111_D108Y_YF] | 0.548
52 | CTTIHSNFMCN [TP53_Y234_Y234S_YF] | 0.405
53 | PICEGYALPHA [ACTC1_Y171_Y168C] | 0.445
54 | KTKIGYSPLHQ [ANK1_Y735_L733I] | 0.466
55 | SSQTIYQRVEG [TFR2_Y23_V22I] | 2.74
56 | FSQQVYRVNLS [FAT4_Y480] | 0.409
57 | GFGGGYGGVLT [KRT19_Y65_A60G_YF] | 0.381
58 | RFLERYIYNRE [HLA-DPB1_Y57] | 0.533
59 | IVEFAYNDKAI [PUM3_Y259_YF] | 0.494
60 | IGSHAYGDQFR [IDH1_Y135_R132S_YF] | 0.377
61 | DPEGAYTTRGG [EPHA3_Y779_A777G] | 0.412
62 | ASTDFNKRGDF [PDHA1_Y243_Y243N_YF] | 0.418
63 | EGVPLYESATT [DCC_Y809] | 0.638
64 | DLRTGYSVPFG [TGM1_Y370_Y365D_YF] | 0.364
65 | ARLDEYIAIAK [RCOR3_Y46_K42R] | 0.598
66 | PANTVYSTVEI [SLAMF7_Y304] | 7.46

Each sequence was assayed against Hck (UniProt P08631) in the same assay as above.
Chain of Hck (P08631 whole entry, looked up): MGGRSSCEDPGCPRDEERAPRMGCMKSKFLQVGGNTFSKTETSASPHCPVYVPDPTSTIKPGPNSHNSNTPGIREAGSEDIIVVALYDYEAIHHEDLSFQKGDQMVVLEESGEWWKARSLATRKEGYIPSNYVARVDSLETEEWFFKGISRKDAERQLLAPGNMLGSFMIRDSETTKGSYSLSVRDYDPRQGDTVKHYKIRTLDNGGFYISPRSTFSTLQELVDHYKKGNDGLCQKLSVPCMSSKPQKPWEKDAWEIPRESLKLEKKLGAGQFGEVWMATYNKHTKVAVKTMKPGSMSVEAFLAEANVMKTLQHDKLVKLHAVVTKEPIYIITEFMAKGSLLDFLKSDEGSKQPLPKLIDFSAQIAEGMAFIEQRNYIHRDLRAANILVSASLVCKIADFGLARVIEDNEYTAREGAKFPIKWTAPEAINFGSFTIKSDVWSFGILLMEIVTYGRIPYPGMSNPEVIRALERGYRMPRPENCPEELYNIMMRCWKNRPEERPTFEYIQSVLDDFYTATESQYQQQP

Row | Sequence | phosphorylation enrichment
67 | TRSYKCLLLSM [NF1_Y491_Y491C] | 0.441
68 | EARRVYGDIIY [ALDH5A1_Y175_H180Y] | 1.27
69 | GGQVFHNSEFG [FLT4_Y1333_Y1333H_YF] | 0.379
70 | EFNINYNNEPP [THG1L_Y228_L232P] | 0.583
71 | RVFIKYLPEWT [PSEN1_Y240_L235R] | 0.944
72 | IGRGSYAKVLL [PRKCZ_Y263] | 0.419
73 | DIRAQYDELAR [KRT18_Y256] | 0.761
74 | FSMGCYEFSLG [HMGCL_Y198_I200F_YF] | 0.706
75 | IDDLEYLHSQG [STK11_Y166_G163D] | 0.531
76 | RGEEPYTKKAL [TTC21B_Y160_K157E] | 0.719
77 | PIPAAYNRYDQ [CDC73_Y290] | 0.507
78 | IFETDYFQKGG [INSR_Y1189_R1191Q_YF] | 0.473
79 | RFLFFYSFLLK [PTEN_Y178_V175L_YF] | 0.631
80 | ETAENYLGHTA [HSPA9_Y181] | 0.47
81 | MYVKSYTIHYS [F5_Y2153] | 0.516
82 | LEGAKYVSHGA [ASS1_Y113_R108L] | 0.606
83 | AAVPAYDKIQV [STXBP2_Y401_R405Q] | 1.09

Row | Sequence | phosphorylation enrichment
84 | RVFRDYVLKSA [HTATIP2_Y111_D108Y_YF] | 0.591
85 | CTTIHSNFMCN [TP53_Y234_Y234S_YF] | 0.43
86 | PICEGYALPHA [ACTC1_Y171_Y168C] | 0.535
87 | KTKIGYSPLHQ [ANK1_Y735_L733I] | 0.435
88 | SSQTIYQRVEG [TFR2_Y23_V22I] | 2.71
89 | FSQQVYRVNLS [FAT4_Y480] | 0.392
90 | GFGGGYGGVLT [KRT19_Y65_A60G_YF] | 0.488
91 | RFLERYIYNRE [HLA-DPB1_Y57] | 1.73
92 | IVEFAYNDKAI [PUM3_Y259_YF] | 0.52
93 | IGSHAYGDQFR [IDH1_Y135_R132S_YF] | 0.498
94 | DPEGAYTTRGG [EPHA3_Y779_A777G] | 0.483
95 | ASTDFNKRGDF [PDHA1_Y243_Y243N_YF] | 0.462
96 | EGVPLYESATT [DCC_Y809] | 2.05
97 | DLRTGYSVPFG [TGM1_Y370_Y365D_YF] | 0.418
98 | ARLDEYIAIAK [RCOR3_Y46_K42R] | 0.447
99 | PANTVYSTVEI [SLAMF7_Y304] | 9.13

Each sequence was assayed against Jak2 (UniProt O60674) in the same assay as above.
Chain of Jak2 (O60674 whole entry, looked up): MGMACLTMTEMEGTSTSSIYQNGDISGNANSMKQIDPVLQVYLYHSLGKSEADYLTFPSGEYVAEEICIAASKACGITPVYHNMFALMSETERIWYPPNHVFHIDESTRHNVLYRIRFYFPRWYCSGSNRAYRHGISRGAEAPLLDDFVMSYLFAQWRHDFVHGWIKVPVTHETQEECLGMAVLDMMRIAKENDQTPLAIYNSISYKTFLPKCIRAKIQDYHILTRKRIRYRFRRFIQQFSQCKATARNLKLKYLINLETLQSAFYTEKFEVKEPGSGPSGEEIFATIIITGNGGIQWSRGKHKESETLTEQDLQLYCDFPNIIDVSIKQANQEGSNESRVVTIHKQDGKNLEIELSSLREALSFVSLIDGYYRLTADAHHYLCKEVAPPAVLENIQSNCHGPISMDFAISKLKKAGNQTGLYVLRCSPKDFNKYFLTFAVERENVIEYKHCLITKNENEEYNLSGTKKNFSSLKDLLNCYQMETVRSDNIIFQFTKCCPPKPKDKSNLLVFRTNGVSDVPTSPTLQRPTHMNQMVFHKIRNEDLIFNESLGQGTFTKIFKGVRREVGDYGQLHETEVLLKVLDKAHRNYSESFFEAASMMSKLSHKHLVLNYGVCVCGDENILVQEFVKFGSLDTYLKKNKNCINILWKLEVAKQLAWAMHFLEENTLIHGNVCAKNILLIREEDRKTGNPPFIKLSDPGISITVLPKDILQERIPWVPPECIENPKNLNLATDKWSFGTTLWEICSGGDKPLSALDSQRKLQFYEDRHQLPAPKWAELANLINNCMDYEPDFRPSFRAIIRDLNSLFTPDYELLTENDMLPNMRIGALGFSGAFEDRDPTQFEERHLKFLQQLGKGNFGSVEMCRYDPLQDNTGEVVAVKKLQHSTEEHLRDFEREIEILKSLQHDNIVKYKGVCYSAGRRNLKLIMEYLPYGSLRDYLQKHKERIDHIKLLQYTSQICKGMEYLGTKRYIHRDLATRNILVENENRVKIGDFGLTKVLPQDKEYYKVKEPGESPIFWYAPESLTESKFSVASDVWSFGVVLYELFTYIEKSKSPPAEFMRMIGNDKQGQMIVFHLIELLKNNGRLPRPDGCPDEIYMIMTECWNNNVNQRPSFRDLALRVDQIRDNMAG

Row | Sequence | phosphorylation enrichment
100 | TRSYKCLLLSM [NF1_Y491_Y491C] | 0.784
101 | EARRVYGDIIY [ALDH5A1_Y175_H180Y] | 0.813
102 | GGQVFHNSEFG [FLT4_Y1333_Y1333H_YF] | 0.534
103 | EFNINYNNEPP [THG1L_Y228_L232P] | 0.989
104 | RVFIKYLPEWT [PSEN1_Y240_L235R] | 1.71
105 | IGRGSYAKVLL [PRKCZ_Y263] | 0.458
106 | DIRAQYDELAR [KRT18_Y256] | 1.04
107 | FSMGCYEFSLG [HMGCL_Y198_I200F_YF] | 1.2
108 | IDDLEYLHSQG [STK11_Y166_G163D] | 0.865
109 | RGEEPYTKKAL [TTC21B_Y160_K157E] | 0.473
110 | PIPAAYNRYDQ [CDC73_Y290] | 0.416
111 | IFETDYFQKGG [INSR_Y1189_R1191Q_YF] | 0.981
112 | RFLFFYSFLLK [PTEN_Y178_V175L_YF] | 1.53
113 | ETAENYLGHTA [HSPA9_Y181] | 0.622
114 | MYVKSYTIHYS [F5_Y2153] | 0.86
115 | LEGAKYVSHGA [ASS1_Y113_R108L] | 0.696
116 | AAVPAYDKIQV [STXBP2_Y401_R405Q] | 1.06

Row | Sequence | phosphorylation enrichment
117 | RVFRDYVLKSA [HTATIP2_Y111_D108Y_YF] | 1.05
118 | CTTIHSNFMCN [TP53_Y234_Y234S_YF] | 0.729
119 | PICEGYALPHA [ACTC1_Y171_Y168C] | 0.453
120 | KTKIGYSPLHQ [ANK1_Y735_L733I] | 0.49
121 | SSQTIYQRVEG [TFR2_Y23_V22I] | 0.525
122 | FSQQVYRVNLS [FAT4_Y480] | 0.762
123 | GFGGGYGGVLT [KRT19_Y65_A60G_YF] | 0.575
124 | RFLERYIYNRE [HLA-DPB1_Y57] | 0.451
125 | IVEFAYNDKAI [PUM3_Y259_YF] | 0.668
126 | IGSHAYGDQFR [IDH1_Y135_R132S_YF] | 0.477
127 | DPEGAYTTRGG [EPHA3_Y779_A777G] | 0.774
128 | ASTDFNKRGDF [PDHA1_Y243_Y243N_YF] | 0.53
129 | EGVPLYESATT [DCC_Y809] | 0.988
130 | DLRTGYSVPFG [TGM1_Y370_Y365D_YF] | 0.576
131 | ARLDEYIAIAK [RCOR3_Y46_K42R] | 0.683
132 | PANTVYSTVEI [SLAMF7_Y304] | 1.47
